The source of these data is article PMC4145799.

For one assay, the target named is LdcI (Escherichia coli) (UniProt P0A9H3). The note with it: cited from earlier work.
The target of assay [1] is inducible lysine decarboxylase LdcI (Escherichia coli) (UniProt P0A9H3). The assay can be described thus: cryo-EM structure; LdcI-LARA complex, 7.5 Å; 7.3 µM LdcI with 73 µM LARA (1:10), 15 min at room temperature, 50 mM Mes pH 6.5, 100 mM NaCl, 0.2 mM PLP, 1 mM DTT, 0.01% glutaraldehyde; D5 symmetry imposed.
inducible lysine decarboxylase LdcI (Escherichia coli), sequence (P0A9H3 whole entry): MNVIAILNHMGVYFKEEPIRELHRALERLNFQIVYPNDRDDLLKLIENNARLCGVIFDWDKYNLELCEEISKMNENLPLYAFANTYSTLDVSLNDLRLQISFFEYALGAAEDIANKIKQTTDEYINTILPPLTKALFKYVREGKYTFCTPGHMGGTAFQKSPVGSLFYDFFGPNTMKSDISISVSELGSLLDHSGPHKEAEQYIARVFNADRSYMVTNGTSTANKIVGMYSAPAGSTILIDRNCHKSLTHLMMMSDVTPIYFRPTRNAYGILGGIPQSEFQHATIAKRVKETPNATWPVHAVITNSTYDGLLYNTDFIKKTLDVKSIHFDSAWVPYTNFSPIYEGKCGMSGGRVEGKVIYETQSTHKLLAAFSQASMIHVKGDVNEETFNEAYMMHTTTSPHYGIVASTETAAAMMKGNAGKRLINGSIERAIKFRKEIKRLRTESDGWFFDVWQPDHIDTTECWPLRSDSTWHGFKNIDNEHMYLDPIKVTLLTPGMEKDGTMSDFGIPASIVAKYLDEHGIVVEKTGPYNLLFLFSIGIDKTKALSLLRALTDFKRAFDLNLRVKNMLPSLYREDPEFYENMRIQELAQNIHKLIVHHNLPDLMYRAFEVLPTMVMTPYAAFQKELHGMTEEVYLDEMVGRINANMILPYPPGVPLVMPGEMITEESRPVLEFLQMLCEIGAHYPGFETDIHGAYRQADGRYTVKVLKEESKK

LdcI (Escherichia coli), sequence (P0A9H3 whole entry): as above
RavA, sequence (P31473 whole entry): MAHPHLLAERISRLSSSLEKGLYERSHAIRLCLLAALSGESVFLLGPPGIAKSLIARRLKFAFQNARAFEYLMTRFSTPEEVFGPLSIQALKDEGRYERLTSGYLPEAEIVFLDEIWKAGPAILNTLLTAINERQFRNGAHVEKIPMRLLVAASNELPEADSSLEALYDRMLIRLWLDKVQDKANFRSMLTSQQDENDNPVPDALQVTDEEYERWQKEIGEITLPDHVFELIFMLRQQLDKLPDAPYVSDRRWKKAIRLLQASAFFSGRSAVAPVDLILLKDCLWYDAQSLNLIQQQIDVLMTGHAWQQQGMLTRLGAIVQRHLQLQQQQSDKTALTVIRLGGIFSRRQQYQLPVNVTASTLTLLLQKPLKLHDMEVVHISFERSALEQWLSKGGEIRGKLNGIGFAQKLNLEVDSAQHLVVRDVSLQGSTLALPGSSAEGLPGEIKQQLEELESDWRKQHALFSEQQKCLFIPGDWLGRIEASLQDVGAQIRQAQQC

As a reminder, the Kd is a measure of binding affinity in units of concentration. Turning to RavA (from UniProt P31473), the equilibrium dissociation constant (Kd) with LdcI (Escherichia coli) is 20 nM.

The substance “LARA domain of RavA (LdcI associating domain of RavA) (from UniProt P31473 1-498) (domain or fragment)” yielded a stoichiometry N (LARA domain per LdcI protomer) in assay [1] of 1.
